Assay results as given in patent US20210071139A1.

How the values were obtained:
[1] = biological target: TOX (UniProt Q66JW3); assay: anti-TOX IP from EL4 nuclear extract, LC-MS/MS, MiST vs IgG control
[2] = biological target: TOX (UniProt Q66JW3); assay: TOX co-IP from EL4 nuclear extract, LC-MS/MS, MiST

TOX, sequence (Q66JW3 whole entry): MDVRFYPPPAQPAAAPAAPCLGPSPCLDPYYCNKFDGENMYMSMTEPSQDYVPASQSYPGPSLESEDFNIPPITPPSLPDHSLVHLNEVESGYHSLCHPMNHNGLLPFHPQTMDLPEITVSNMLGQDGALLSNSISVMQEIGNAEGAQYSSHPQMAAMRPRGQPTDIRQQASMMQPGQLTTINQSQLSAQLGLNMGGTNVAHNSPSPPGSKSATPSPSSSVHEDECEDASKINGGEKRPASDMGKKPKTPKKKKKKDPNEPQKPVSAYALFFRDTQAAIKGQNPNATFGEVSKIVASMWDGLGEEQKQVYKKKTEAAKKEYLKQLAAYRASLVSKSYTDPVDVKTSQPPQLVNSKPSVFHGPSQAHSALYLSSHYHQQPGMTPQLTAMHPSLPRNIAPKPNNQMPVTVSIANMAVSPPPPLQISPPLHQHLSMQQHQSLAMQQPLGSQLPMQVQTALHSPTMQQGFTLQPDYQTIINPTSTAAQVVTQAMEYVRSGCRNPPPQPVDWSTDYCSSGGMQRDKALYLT

| Binder | Abundance [1] | MiST Score [1] | Reproducibility [1] | Specificity [1] | Abundance [2] | MiST Score [2] | Reproducibility [2] | Specificity [2] |
| --- | --- | --- | --- | --- | --- | --- | --- | --- |
| Cwc27 (protein, UniProt Q3TKY6 2-469, looked up) Spliceosome-associated protein CWC27 homolog: SNIYIQEPPTNGKVLLKTTAGDIDIELWSKEAPKACRNFIQLCLEAYYDNTIFHRVVPGFIVQGGDPTGTGTGGESIYGAPFKDEFHSRLRFNRRGLVAMANAGPHDNGSQFFFTLGRADELNNKHTIFGKVTGDTVYNMLRLTEVDIDDEERPRNPHRIKSCEVLFNPFDDITPREIKKPKNEKPEEEVKKLKPKGTKNFSLLSFGEEAEEEEEEVNRVSQSMKGRSKSSHDLLKDDPHLSSVPAVESEKDDATGDLEDDGEDDSAERDEYMEDDEKNLMRERIAKRLKKDASASVKSAGDGEKKPASRSEELRKEARQLKRELLAAKQKKETAIKVEEGREEEEAAPDGAVAEYRREKQKYEALRKQQPKKGTSREDQTLALLSQFKSKLTQAITETPENSVPEAEVEDDEGWMSHVLQFEDKTRKVKDASMQDSDTFEIYDPRNPVNKRRREESKKLLREKKERR | 1.14e-05 | 0.758 | 0.435 | 0.91 | – | – | – | – |
| Spty2d1 (protein, UniProt Q68FG3 1-682, looked up) Protein SPT2 homolog: MDFREILLIASKGQGVNHVPKRYSLAVGPPKKDPKVKGVQSAAVQAFLRRKEEELRQKALEEKKRKEELVKKRIELKHDKKARAMAKRTKDNFHGYDGIPVEEKTKKKQLVESHLNQGTDQEYDVEEEDFIDYNQAELDQDYEEEQEPPKAESKPKAPLKSAPSPMNFTDLLRLAEKKQFEPVEIKVVKKAEDRPLTAEELREREFLERKHRKKKPEPDAKLPPPVLKKAPSHKDIMGTKPSRGAGDRQLASKGLPFPQAEKKFRPSTASEKQAALSSPKSLPGERTKVGSGSSTQPSLREGHNRPVFNGAGKPRPSTCSPSVPKTPASGTQKSASEHKAKKPLPSHPSHSKPGPTVLSHNKSKSPGVRQPGSNSGSAPGQPNPGTARPTLSSGPVPRRQNGSSSSGPEQSAGGIRKLASNSHLSGRTLNGTNGPGRPASSSSGPGRPISGSAGSGRPVGSSGGPGQPVNNPHDLRRPMNSLSSPGRAVSGPGRSISGSIPAGRTVNSGPGRPVSSLGPGRAVSNPGLPTKPRCTVVSETISSKNIISRSSNGQINGMKPLLSGYRSAQGPQRLPFPTGYKRPREYEEDDDDEYDSEMDDFIEDEGEPQEEISKHIREIFGYDRKKYKDESDYALRYMESSWKEQQKEEAKSLRLGMQEDLEEMRREEEELKRRKAKKLKRH | – | – | – | – | 1.04e-05 | 0.846 | 0.848 | 0.852 |
